Measurements published in patent publication US20250092124A1 (YUNNAN BAIYAO GROUP, published 2025).

How the values were obtained:
[1] = biological target: T1, GDF15-HIS (ACROBiosystems, CAT #: GD5-H5149) (human, UniProt Q99988 197-308); experiment: ELISA, GDF15-HIS coated
T1 construct: Bought protein; also called GDF15 (ACROBiosystems, GD5-H5149); human GDF15; not shown: His tag
T1 sequence (looked up): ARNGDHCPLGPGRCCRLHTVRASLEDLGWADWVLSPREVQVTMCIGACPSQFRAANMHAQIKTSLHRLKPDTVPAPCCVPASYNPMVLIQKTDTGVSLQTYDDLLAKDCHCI
Experimental: The experiment was performed as detailed in Example 2, except that the coating protein was GDF15-HIS (ACROBiosystems, CAT #: GD5-H5149), and the antibodies to be tested (the humanized antibodies), negative control antibody (hIgG1), positive control antibodies Ponsegromab (Pfizer; Drug Bank: D11909) and AV380-hlgG1 (the heavy chain and light chain constant regions of AV380-mIgG1 were replaced with the constant regions of human IgG, i.e., SEQ ID NO. 5 and SEQ ID NO. 6) were added to each well of the coated plate.

[2] = biological target: T2, cynoGDF15-mFC (monkey (cyno); mouse, UniProt G7PWZ3 197-308); experiment: ELISA, cynoGDF15-mFC coated
T2 construct: also called monkey GDF15 (cynoGDF15)
T2 sequence (looked up): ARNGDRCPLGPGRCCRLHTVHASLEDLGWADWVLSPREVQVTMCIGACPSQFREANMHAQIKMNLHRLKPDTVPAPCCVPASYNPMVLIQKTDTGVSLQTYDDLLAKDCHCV
Experimental: The experiment was performed as detailed in Example 2, except that the coating protein was cynoGDF15-mFC (GDF15: Genbank accession number EHH29815.1; mFC: Genbank accession number AAH31470.1), and the antibodies to be tested (the humanized antibodies), negative control antibody (hIgG1), and positive control antibodies Ponsegromab and AV380-hIgG1 were added to each well of the coated plate.

[3] = biological target: T1, GDF15-HIS (ACROBiosystems, CAT #: …); experiment: ELISA on human GDF15, antibody after 2 weeks at 37 °C in PBS
Experimental: (§1) […] of the antibodies to be tested (final concentration 1 mg/ml) were added to 200 μl of plasma and PBS, respectively, tightly sealed and placed at 37° C. for 2 weeks. The change of protein binding activity was detected by ELISA.

[4] = biological target: T1, GDF15-HIS (ACROBiosystems, CAT #: …); experiment: BLI (ForteBio Octet), antibody immobilised, GDF15 200-6.25 nM
[5] = biological target: T1, GDF15-HIS (ACROBiosystems, CAT #: …); experiment: ELISA on human GDF15, antibody after 2 weeks at 37 °C in plasma
Experimental: as §1

[6] = biological target: T1, GDF15-HIS (ACROBiosystems, CAT #: …); experiment: ELISA in stability test, antibody before treatment; coated antigen not named
[7] = biological target: T1, GDF15-HIS (ACROBiosystems, CAT #: …); experiment: ELISA in stability test, antibody after 40 °C for 1 week; coated antigen not named
Experimental: (§2) An appropriate amount of each antibody was taken and adjusted to 10 mg/mL, and was placed at 40° C. for 1 and 2 weeks. Protein aggregation was detected using SEC-HPLC, and protein binding activity change was detected by ELISA.

[8] = biological target: T1, GDF15-HIS (ACROBiosystems, CAT #: …); experiment: ELISA in stability test, antibody after pH 3.6 for 2-4 h; coated antigen not named
Experimental: An appropriate amount of each antibody was taken and adjusted to 5 mg/mL in storage buffer adjusted to pH 3.6 using an ultrafiltration tube. The antibodies were placed at room temperature for 2-4 hours, then protein aggregation was detected using SEC-HPLC, and protein binding activity change was detected by ELISA.

[9] = biological target: T1, GDF15-HIS (ACROBiosystems, CAT #: …); experiment: ELISA in stability test, antibody after 40 °C for 2 weeks; coated antigen not named
Experimental: as §2

[10] = biological target: T1, GDF15-HIS (ACROBiosystems, CAT #: …); experiment: ELISA in stability test, antibody after 5 freeze-thaw cycles; coated antigen not named
Experimental: An appropriate amount of each antibody was taken and adjusted to 10 mg/mL, followed by freezing at −80° C. for 10 min, and placing in an ice-water mixture to slowly thaw. The above procedure was repeated 5 times. Protein aggregation was detected using SEC-HPLC, and protein binding activity change was detected by ELISA.

[11] = biological target: T3, GDF15-mFC protein (human; mouse, UniProt Q99988 197-308); experiment: blocking ELISA as in Example 4, GFRAL-hIgG1 Fc coated (competitor), GDF15-mFC mixed with antibody
T3 construct: extracellular domain;domain: IgG2a-FC; also called GDF15-mFc fusion protein
T3 sequence (looked up): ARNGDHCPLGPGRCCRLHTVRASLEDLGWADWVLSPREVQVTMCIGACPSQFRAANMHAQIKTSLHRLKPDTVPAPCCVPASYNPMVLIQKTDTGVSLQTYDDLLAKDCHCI
Experimental: A fusion protein comprising the extracellular region of GFRAL protein (Genbank accession number NM_207410.2) and human IgG1-FC (Genbank accession number CAC20454.1) was diluted to […] with coating solution, followed by adding to ELISA plate at 50 μl/well and incubating at 4° C. overnight. The solution in the wells was discarded and the plate was washed 3 times with washing solution, each time for 3-5 minutes, and dried via tapping. 200 μl of blocking solution was added to each well followed by incubating at 4° C. overnight. The plate was washed 3 times with washing solution, and the coated plate may be stored at −20° C. or 4° C. for future use.
The antibodies to be tested, positive control antibody AV380-mIgG1 and blank control (PBS) were added to the wells. […] At the same time, GDF15-mFC protein (GDF15: Genbank accession number NM_004864.3; mFC: Genbank accession number AAH31470.1) was added at 20 ng/well and mixed with the antibodies to be tested. The wells were incubated at 37° C. for 1 hour, washed, and dried via tapping. Then the enzyme-labeled secondary antibody, horseradish peroxidase-labeled goat anti-mouse IgG (SIGMA, catalog number A9044-2 ml) was added to each well, at a dilution of 1:10000, 50-100 μl/well. The wells were incubated at 37° C. for 2 hours, washed, and dried via tapping. 100 μl of freshly prepared developing solution TMB was added to each well and incubated at 37° C. for 30 minutes. 2 mol/L H₂SO₄ was added to terminate the reaction, and the OD value was obtained on an enzyme-linked immunosorbent reader.
The experiment was performed as detailed in Example 4, except that the antibodies to be tested (the humanized antibodies), negative control antibody (hIgG1), and positive control antibodies Ponsegromab and AV380-hIgG1 were added to each well of the coated plate.

[12] = biological target: T1, GDF15-HIS (ACROBiosystems, CAT #: …); experiment: cell-based or functional assay
[13] = biological target: T3, GDF15-mFC protein; experiment: competitive ELISA, GFRAL-HIS coated (competitor), GDF15-mFc 0.3 µg/ml pre-incubated with antibody
Experimental: GFRAL-HIS protein (ACROBiosystems, GFA-H52H3) was dissolved in PBS at a concentration of […] and was used to coat ELISA 96-well plate one day before blocking the plate with 2% BSA in PBS. 53E5 (hz), and control antibodies Ponsegromab and AV380-hIgG1 were 3.16-fold diluted for 10 gradients with a starting concentration of 20 μg/ml. At the same time, GDF15-mFc protein was added at a final concentration of 0.3 μg/ml. After incubation at room temperature for 1 hour, the mixtures were added to 96-well plate coated with GFRAL-HIS. After incubated at room temperature for 1 hour, the plate was washed and then HRP-anti-mouse IgG was added to the plate. After incubation at room temperature for 1 hour, the HRP enzyme activity (OD450) was detected. The HRP enzyme activity represents the relative amount of GDF15-mFc protein bound to GFRAL. The OD450 values and antibody concentrations were plotted. The dose-effect curve was fitted using the log (agonist) vs. response-variable slope (four-parameter) Logistic model to calculate IC50.

B1: 53A8(hz) (antibody, human IgG1, kappa, V domains shown)
VH: QVQLQESGPGLVKPSETLSLTCTFSGFSLSTSGMGVGWIRQPPGKGLEWLAHIRWDDVKRYNPALKSRLTISKDTSKSQISLKLSSVTAADTAVYYCAQMAWDWFAYWGQGTTVTVSS
VL: DIQMTQSPSSLSASVGDRVTITCKASQNVDTDVAWYQQKPGQSPKALIYSASYRYSGVPSRFSGSGSGTDFTLTISSLQPEDFATYYCHQYNSYPTFGQGTRLEIKR
notes: also called humanized antibody 53A8
- EC50 [1]: 0.0827 µg/mL
- OD450.Max [1]: 1.05 OD450
- EC50 [2]: 0.0775 µg/mL
- OD450.Max [2]: 1.03 OD450
- EC50 [3]: 0.113 µg/mL
- Kd [4]: 0.266 nM
- koff [4]: 0.000257 s⁻¹
- kon [4]: 967000 M⁻¹ s⁻¹
- EC50 [5]: 0.0413 µg/mL
- EC50 [6]: 0.0412 µg/mL
- EC50 [7]: 0.0643 µg/mL
- EC50 [8]: 0.0691 µg/mL
- EC50 [9]: 0.0296 µg/mL
- EC50 [10]: 0.0673 µg/mL
- IC50 [11]: 0.283 µg/mL
- OD450.Max [11]: 1.1 OD450

B2: AV380-hIgG1 (antibody)
heavy: not shown
light: DIQMTQSPASLSASVGETVTITCRTSENLHNYLAWYQQKQGKSPQLLVYDAKTLADGVPSRFSGSGSGTQYSLKINSLQPEDFGSYYCQHFWSSPYTFGGGTKLEIKRTVAAPSVFIFPPSDEQLKSGTASVVCLLNNFYPREAKVQWKVDNALQSGNSQESVTEQDSKDSTYSLSSTLTLSKADYEKHKVYACEVTHQGLSSPVTKSFNRGEC
notes: also called AV380-hlgG1
- Bottom (luciferase activity fold, fitted curve), HEK293 SRE-LUC2-cRET-GFRAL reporter cells [12]: 1.03
- IC50, luciferase in HEK293 SRE-LUC2-cRET-GFRAL reporter cells stimulated with GDF15-His 5 ng/ml [12]: 0.0447 µg/mL
- EC50 [1]: 0.0823 µg/mL
- OD450.Max [1]: 1.07 OD450
- EC50 [2]: 0.0741 µg/mL
- OD450.Max [2]: 1 OD450
- Kd [4]: 0.0845 nM
- koff [4]: 6.91e-05 s⁻¹
- kon [4]: 817000 M⁻¹ s⁻¹
- IC50 [11]: 0.231 µg/mL
- IC50 [13]: 0.231 µg/mL
